Changes are numbered by the printed parent chain.
Assays:
[1] = tested on: human microvascular endothelial cells (HMECs); experiment: Apoptosis of serum-starved HMEC; assay type: cell-based; conditions: for cell death / protection from apoptosis, agent alone: VEGF 100 ng/ml, FGF 100 ng/ml, hScd-1ED 30 ug/ml
Procedure: FIGS. 17A-B—Competition with soluble Sdc-1 ectodomain causes enhanced apoptosis of human microvascular endothelial cells (HMECs) in the presence of FGF. (FIG. 17A) HMEC-1 cells were plated overnight on gelatin, then starved for 24 hr to induce the intrinsic pathway of apoptosis. Apoptotic cells were easily observed by DIC microscopy. Examples of apoptotic cells are denoted by black arrows, living cells by red arrows. Cells were treated with 100 ng/ml VEGF, 100 ng/ml FGF, FGF+30 ug/ml hScd-1ED or hScd-1ED alone. […] (FIG. 17B) Quantification of % protection from apoptosis by each treatment. […] VEGF has no effect on this pathway, as it affects the extrinsic pathway of apoptosis which is not induced by serum starvation.
Finally, the inventors performed used human microvascular endothelial cells (HMECs), which also express Sdc-1, as well as the αvβ3 and αvβ5 integrins, to test the theory that endothelial cells undergoing angiogenesis in response to fibroblast growth factor, a common angiogenic agent, will enter apoptosis and die unless the FGF signal is accompanied by a coordinate signal from the αvβ3 integrin. The inventors hypothesis was that recombinant ectodomain of Sdc-1 would block the signal from the αvβ3 integrin and induce apoptosis in the presence of FGF. HMEC cells grown in low serum conditions spontaneously enter apoptosis. […] In fact, treatment with FGF together with the soluble ectodomain protein induced apoptosis beyond that of the low serum condition alone (FIGS. 17A-B).

B82L fibroblasts = experiment: B82L cell attachment and spreading; assay type: cell-based, mouse
Text: FIGS. 11A-F—Downregulation of mouse Sdc-1 expression by siRNA blocks αvβ5-dependent cell attachment and spreading on VN. FACS analysis for (FIG. 11A) mouse syndecan-1 (mAb 281.2), (FIG. 11B) αv integrin subunit (mAb H9.2B8), (FIG. 11C) mouse Syndecan-4 (mAb KY8.2), (FIG. 11D) human syndecan-1 (mAb B-B4) and (FIG. 11E) FcR^ecto-hS1 chimera (FITC-conjugated hIgG) expression against isotype IgG controls (red-fill) in vector^NEO (FIGS. 11A-C), human syndecan-1 (FIG. 11D) and FcR^ecto-hS1 (FIG. 11E) expressing B82L cells 48 h after transfection with either 600 nM control (Control) or mouse syndecan-1-specific siRNA (siRNA). (FIG. 11F) B82L^NEO empty vector-transfected control cells and B82L cells expressing human syndecan-1 or the FcR^ecto-hS1 chimera were transfected with control or mouse syndecan-1-specific siRNA and seeded on wells coated with either 5 μg/mL VN alone or a mixed substratum of VN plus 60 μg/mL of antibody directed against mouse syndecan-1 (281.2), human syndecan-1 (B-B4) or the FcR^ecto-hS1 chimera (hIgG). Cells were incubated at 37° C. for 2 h, fixed, and stained with rhodamine-conjugated phalloidin.
FIGS. 12A-B—B82L cell spreading on VN is blocked by recombinant Scd-1ED. (FIG. 12A) B82L fibroblasts were plated on 5 μg/mL VN in the absence of other treatment, or in the presence of 30 μM GST, 1-30 μM GST-mS1ED or 30 μM GST-mS4ED (inset), then fixed and stained with rhodamine-phalloidin for visualization. (FIG. 12B) Quantification of cell adhesion in triplicate samples (±S.E.) plated either with no additions, or concentrations of GST-mS1ED ranging from 0-30 μM. […]
The failure of NEO cells to engage the mixed substratum is indicative of the efficient blockade of mouse Sdc-1 expression by the siRNA. It is unlikely that the mouse Sdc-1-siRNA treatment has any non-specific cellular effects since spreading on VN is specifically rescued by the expression of full-length human Sdc-1 (hS1, FIG. 11F). Spreading of the B82L-hS1 cells is indistinguishable from parental cells. However, spreading on VN is not recovered in cells expressing the FcR^ecto-hS1 chimera—a construct in which the syndecan's ectodomain is replaced by the ectodomain of the human Fcγ receptor Ia (FcR^ecto-hS1)—regardless of whether the cells are plated on VN alone, or VN supplemented with 60 μg/mL of hIgG to engage the FcR^ecto-hS1 construct.
Recombinant Sdc-1 ectodomain competitively blocks αvβ5 integin activity. To test whether soluble Sdc-1 ectodomain will compete with the syndecan activation of the αvβ5 integrin, B82L cells were plated on 5 μg/mL VN in the presence of a recombinant GST fusion protein containing either the ectodomain of mouse Sdc-1 (GST-mS1ED) or human Sdc-1 (GST-hS1ED; data not shown).

[2] = tested on: mouse aortic endothelial cells; experiment: Mouse aortic endothelial cell spreading on VN; assay type: cell-based
Text: Secondly, they targeted Sdc-1 expression cells using siRNA.

VEGF [reference compound]
cell death / protection from apoptosis, agent alone ([1]; starved 24 hr): no effect

B1: GST-hS1ED: recombinant GST fusion protein containing the ectodomain of human Sdc-1 (protein)
chain: QIVATNLPPEDQDGSGDDSDNFSGSGAGALQDITLSQQTPSTWKDTQLLTAIPTSPEPTGLEATAASTSTLPAGEGPKEGEAVVLPEVEPGLTAREQEATPRPRETTQLPTTHQASTTTATTAQEPATSHPHRDMQPGHHETSTPAGPSQADLHTPHTEDGGPSATERAAEDGASSQLPAAEGSGEQDFTFETSGENTAVVAVEPDRRNQSPVDQGATGASQGLLDRKEVLG
modifications: left off: a dimerising Fc or GST
cell attachment and spreading on VN (B82L fibroblasts; 5 μg/mL VN, S1ED 1-30 μM, GST and GST-mS4ED 30 μM): increasing blockade | lowest concentration tested at which competition occurs (B82L fibroblasts; cells plated on 5 μg/mL VN): 1 µM

B2: hScd-1ED: soluble human Sdc-1 ectodomain used as competitor on HMEC cells (protein, UniProt P18827 23-254, looked up)
extracellular domain: B1 chain with Q114L
modifications: extracellular domain
cell death in 15% serum ([1]; control cells in 15% serum, not shown): no effect | apoptosis in the presence of FGF ([1]; starved 24 hr, 100 ng/ml FGF + 30 ug/ml hScd-1ED): dramatically increases apoptosis | cell death / protection from apoptosis, agent alone ([1]; starved 24 hr): protective effect

B3: Sdc-1 ectodomain: recombinant Sdc-1 ectodomain competitor; species and fusion not stated at this place (protein)
chain: B1 chain
competitor concentration at which spreading on VN is blocked [2]: 1 µM

Source: US20060134122A1, “Peptides of syndecan-1 for inhibition of cancer” (priority 2004, published 2006)
